In patent US20120251571, “RNASE L-MEDIATED CLEAVAGE PRODUCTS AND USES […]” (The Cleveland Clinic Foundation, published 2012):

Assays:
Flag-RIG-I [1] = biological target: T1, Flag-RIG-I (Homo sapiens, UniProt O95786 O95786:1-925); experiment: pulldown; one clone; conditions: tags: FLAG, from 293T cells
T1 sequence: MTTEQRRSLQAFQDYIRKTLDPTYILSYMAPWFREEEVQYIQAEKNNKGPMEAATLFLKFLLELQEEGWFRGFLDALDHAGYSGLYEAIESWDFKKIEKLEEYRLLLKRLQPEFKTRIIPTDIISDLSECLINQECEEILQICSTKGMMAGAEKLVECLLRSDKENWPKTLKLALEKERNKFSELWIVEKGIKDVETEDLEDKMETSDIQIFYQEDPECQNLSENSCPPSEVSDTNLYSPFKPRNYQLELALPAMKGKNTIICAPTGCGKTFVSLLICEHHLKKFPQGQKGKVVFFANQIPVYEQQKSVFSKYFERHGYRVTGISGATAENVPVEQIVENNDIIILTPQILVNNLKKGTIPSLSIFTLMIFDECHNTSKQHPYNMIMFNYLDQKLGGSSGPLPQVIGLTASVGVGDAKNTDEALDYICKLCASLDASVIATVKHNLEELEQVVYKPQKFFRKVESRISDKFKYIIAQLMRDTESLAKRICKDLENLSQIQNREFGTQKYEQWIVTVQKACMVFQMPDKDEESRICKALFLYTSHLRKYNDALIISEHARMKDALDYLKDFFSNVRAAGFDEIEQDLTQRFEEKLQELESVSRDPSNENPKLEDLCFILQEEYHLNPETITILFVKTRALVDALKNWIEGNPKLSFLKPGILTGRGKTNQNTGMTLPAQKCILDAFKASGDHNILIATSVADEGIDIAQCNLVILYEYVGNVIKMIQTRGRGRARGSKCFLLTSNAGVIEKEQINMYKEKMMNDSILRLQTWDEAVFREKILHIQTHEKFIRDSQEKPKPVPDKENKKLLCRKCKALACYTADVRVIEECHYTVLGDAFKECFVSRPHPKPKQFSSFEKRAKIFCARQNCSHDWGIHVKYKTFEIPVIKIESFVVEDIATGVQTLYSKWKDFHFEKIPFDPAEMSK

Flag-RIG-I [2] = biological target: T1, Flag-RIG-I; experiment: pulldown; two clones; conditions: tags: FLAG, from 293T cells
RIG-I full-length [3] = biological target: T2, RIG-I full-length (Homo sapiens, UniProt O95786 O95786:1-925); experiment: EMSA; stable complex; 10 pmol protein, 6 pmol RNA, 20 mM Tris pH 8.0, 1.5 mM MgCl2, 37 C; conditions: tags: recombinant full-length (Saito et al. 2007, 2008); broken stem-loop with 5' and 3' ss overhangs
T2 sequence: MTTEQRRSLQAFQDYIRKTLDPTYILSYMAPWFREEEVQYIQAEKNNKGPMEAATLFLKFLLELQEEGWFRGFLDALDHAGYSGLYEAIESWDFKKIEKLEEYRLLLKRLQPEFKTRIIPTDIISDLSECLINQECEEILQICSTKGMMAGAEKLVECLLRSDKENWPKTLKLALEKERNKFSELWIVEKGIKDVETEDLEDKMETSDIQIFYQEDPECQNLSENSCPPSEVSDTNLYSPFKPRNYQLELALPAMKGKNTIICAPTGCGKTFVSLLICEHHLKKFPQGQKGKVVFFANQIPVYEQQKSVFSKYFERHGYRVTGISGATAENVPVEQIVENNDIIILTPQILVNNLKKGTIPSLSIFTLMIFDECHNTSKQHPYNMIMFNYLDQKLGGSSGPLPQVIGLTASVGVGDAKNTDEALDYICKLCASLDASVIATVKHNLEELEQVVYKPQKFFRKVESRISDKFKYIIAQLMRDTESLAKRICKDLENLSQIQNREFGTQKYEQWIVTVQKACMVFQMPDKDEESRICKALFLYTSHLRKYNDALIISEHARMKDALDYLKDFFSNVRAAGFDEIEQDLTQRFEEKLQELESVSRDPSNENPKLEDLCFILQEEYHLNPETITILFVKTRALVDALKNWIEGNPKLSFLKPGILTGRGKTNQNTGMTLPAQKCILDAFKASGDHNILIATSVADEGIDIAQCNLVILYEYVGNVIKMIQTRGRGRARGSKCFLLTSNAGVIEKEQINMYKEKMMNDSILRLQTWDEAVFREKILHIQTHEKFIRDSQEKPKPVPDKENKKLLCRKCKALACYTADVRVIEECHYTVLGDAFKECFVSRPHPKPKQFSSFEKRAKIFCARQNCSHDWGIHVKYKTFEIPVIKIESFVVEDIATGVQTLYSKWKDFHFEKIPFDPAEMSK

[4] = biological target: T3, N-RIG (RIG-I N-terminal polypeptide) (UniProt O95786 O95786:1-228); experiment: EMSA; N-terminal polypeptide control; conditions: broken stem-loop with 5' and 3' ss overhangs
T3 sequence: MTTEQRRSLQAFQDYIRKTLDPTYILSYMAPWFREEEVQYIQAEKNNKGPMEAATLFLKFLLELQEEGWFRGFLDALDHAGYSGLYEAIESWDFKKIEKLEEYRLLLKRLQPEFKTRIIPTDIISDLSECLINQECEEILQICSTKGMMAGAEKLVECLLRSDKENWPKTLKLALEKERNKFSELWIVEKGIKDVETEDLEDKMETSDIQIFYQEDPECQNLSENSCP

Flag-RIG-I [5] = biological target: T1, Flag-RIG-I; experiment: pulldown; six clones isolated; partial clones of the full fragment; conditions: tags: FLAG, from 293T cells
Flag-RIG-I [6] = biological target: T1, Flag-RIG-I; experiment: pulldown; three clones; conditions: tags: FLAG, from 293T cells
RIG-I full-length [7] = biological target: T2, RIG-I full-length; experiment: EMSA; stable complex; 1.5 mM MgCl2, 37 C; conditions: tags: recombinant full-length (Saito et al. 2007, 2008); broken stem-loop with 5' and 3' ss overhangs
Flag-RIG-I [8] = biological target: T1, Flag-RIG-I; experiment: pulldown; eight clones; conditions: tags: FLAG, from 293T cells; broken stem-loop with 5' and 3' ss overhangs

B1: svRNA14 (ssRNA)
RNA: CCCGUGACCCUACAACCCCCCUCGCGAGAGCCGCGUGGGAGACAGCAAGACACACUCCAGUCAAUUCCUGGCUAGGCAACAU
B1: binds (Flag-RIG-I [1]).

B2: svRNA15 (ssRNA)
RNA: CCCGUGACCCUACAACCCCCCUCGCGAGAGCCGCGUGGGAGACAGCAAGACACACUCCAGUCAAUUCCUGGCUAGGCAACAU
B2: binds (Flag-RIG-I [2]).

B3: svRNA3 (5'-p3/3'-OH) (ssRNA)
RNA: AAGAACAAAGCUCAAACUCACUCCAAUAGCGGCCGCUGGCCGGCUGGACUUGUCCGGUUGGUUCACGGCUGGCUACAGCGGGGGAGACAUUUA
modifications: 5'-triphosphate, 3'-OH
B3: binds (RIG-I full-length [3]); no binding [4].

B4: svRNA7 (ssRNA)
RNA: GGUCUCCUUACACCAGGCGCCAAGCAGAACAUCCAACUGAUCAACACCAACGGCAGUUGGCACAUCAAUAGCACGGCCUUGAAUUGCAAUGAAAGCCUUAACACCGGCUGGUUAGCAGGGCUCUUCUAUCAACACAAAUUCAACUCUUCAGGCUGUCCUGAGAGGUUGGCCAGCUGCCGACGCCUUACCGAUUUUGCCCAGGGCUGGGGUCCUA
B4: binds (Flag-RIG-I [2]).

B5: svRNA1 (ssRNA)
RNA: UGUCCACCGGCCUCAUCCACCUCCACCAGAACAUU
B5: binds (Flag-RIG-I [5]).

B6: svRNA8 (ssRNA)
RNA: GCUUGGGCCAGCCGACGGAAUGGUCUCCAAGGGGUGGAGGUUGCUGGCGCCCAUCACGGCGUACGCCCAGCAGACGAGAGGCCUCCUAGGGUGUAUA
B6: binds (Flag-RIG-I [1]).

B7: svRNA9 (ssRNA)
RNA: GCUUGGGCCAGCCGACGGAAUGGUCUCCAAGGGGUGGAGGUUGCUGGCGCCCAUCACGGCGUACGCCCAGCAGACGAGAGGCCUCCUAGGGUGUAUA
B7: binds (Flag-RIG-I [1]).

B8: svRNA6 (ssRNA)
RNA: ACGGGUCAUCGCAUGGCAUGGGAUAUGAUGAUGAACUGGUCCCCUACGGCAGCGUUGGUGGUAGCUCAGCUGCUCCGGAUCCCACAAGCCAUCAUGGACAUGAUCGCUGGUGCUCACUGGGGAGUCCUGGCGGGCAUAGCGU
B8: binds (Flag-RIG-I [2]).

B9: svRNA13 (ssRNA)
RNA: CCACCUCCACGGUCCCCUCCUGUGCCUCCGCCUCGGAAAAAGCGUACGGUGGUCCUCACCGAAUCAACCCUA
B9: binds (Flag-RIG-I [1]).

B10: svRNA11 (ssRNA)
RNA: ACAGACUGGGCGCUGUUCAGAAUGAAGUCACCCUGACGCACCCAAUCACCAAAUACAUCAUGACAUGCAUGUCGGCCGACCUGGAGAUCGUCACGAGCACCUGGGUGCUCGUUGGCGGCGUCCUGGCUGCUCUGGCCGCGUAUUGCCUGUCAACAGGCUGCGUGGUCAUAGUGGGCAGGAUU
B10: binds (Flag-RIG-I [1]).

B11: svRNA5 (ssRNA)
RNA: ACCUUCUCUCCCAGGCGCCACUGGACGACGCAAGACUGCAAU
B11: binds (Flag-RIG-I [1]).

B12: svRNA12 (ssRNA)
RNA: UGCACCGCCAACCAUGACUCCCCUGACGCCGAGCUCAUAGAGGCUAACCUCCUGUGGAGGCAGGAGAUGGGCGGCAACAUCACCAGGGUUGAGUCAGAGAACAAAGUGGUGAUUCUGGACUCCUUCGAUCCGCUUGUGGCAGAGGAGGAUGAGCGGGAGGUCUCCGUACCUGCAGAAAUUCUGCGGAAGUCUCGGAGAUUCGCCCGGGCCCUGCCCGUCUGGGCGCGGCCGGACUACAACCCCCCGCUA
B12: binds (Flag-RIG-I [2]).

B13: svRNA10 (ssRNA)
RNA: ACCUGGUCACGAGGCACGCCGAUGUCAUUCCCGUGCGCCGGCGAGGUGAUAGCAGGGGUAGCCUGCUUUCGCCCCGGCCCAUUUCCUACUUGAAAGGCUCCUCGGGGGGUCCGCUGUUGUGCCCCGCGGGACACGCCGUGGGCCUAUUCAGGGCCGCGGUGUGCACCCGUGGAGUGGCU
B13: binds (Flag-RIG-I [1]).

B14: svRNA2 (ssRNA)
RNA: UGUUGCUGCAACGCUGGGCUUUGGUGCUU
B14: binds (Flag-RIG-I [6]).

B15: svRNA3 (5'-OH/3'-p) (ssRNA)
RNA: AAGAACAAAGCUCAAACUCACUCCAAUAGCGGCCGCUGGCCGGCUGGACUUGUCCGGUUGGUUCACGGCUGGCUACAGCGGGGGAGACAU
modifications: 5'-OH, 3'-phosphate
B15: binds (RIG-I full-length [7]); binds (Flag-RIG-I [8]); no binding [4].
